Assay results from publication PMC4089486 (Acta Crystallographica Section D: Biological Crystallography, 2014).

Biological target: Clostridium difficile strain 630 alanine racemase, recombinant wild type (Clostridium difficile strain 630, UniProt A0AC59G415 1-385)
Test: SEC
Conditions: both partners purified

B1: CdAlr cleavage product, amino acids 1-271 (domain or fragment)
chain: MQKITVPTWAEINLDNLRFNLNNIKNLLEEDIKICGVIKADAYGHGAVEVAKLLEKEKVDYLAVARTAEGIELRQNGITLPILNLGYTPDEAFEDSIKNKITMTVYSLETAQKINEIAKSLGEKACVHVKIDSGMTRIGFQPNEESVQEIIELNKLEYIDLEGMFTHFATADEVSKEYTYKQANNYKFMSDKLDEAGVKIAIKHVSNSAAIMDCPDLRLNMVRAGIILYGHYPSDDVFKDRLELRPAMKLKSKIGHIKQVEPGVGISYGLK
- binding result: binds
